This note sets out measurements from patent publication US20130184211A1 (NEW YORK UNIVERSITY, published 2013).

Assay [1] deals with T1, 1:1 binary complex of the ectodomains of FGFR1c and Klotho (human; murine, UniProt O35082 35-982).
T1 construct: range 35-982; also called FGFR1c-Klotho complex; binary FGFR1c-Klotho complex; not shown: C-terminal FLAG tag
T1 sequence 1: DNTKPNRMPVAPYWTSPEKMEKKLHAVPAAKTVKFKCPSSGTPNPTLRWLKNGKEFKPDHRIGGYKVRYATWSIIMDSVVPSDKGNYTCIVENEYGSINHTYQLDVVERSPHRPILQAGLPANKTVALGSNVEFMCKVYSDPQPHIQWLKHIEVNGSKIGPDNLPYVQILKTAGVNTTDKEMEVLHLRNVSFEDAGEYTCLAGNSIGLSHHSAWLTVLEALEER
T1 sequence 2: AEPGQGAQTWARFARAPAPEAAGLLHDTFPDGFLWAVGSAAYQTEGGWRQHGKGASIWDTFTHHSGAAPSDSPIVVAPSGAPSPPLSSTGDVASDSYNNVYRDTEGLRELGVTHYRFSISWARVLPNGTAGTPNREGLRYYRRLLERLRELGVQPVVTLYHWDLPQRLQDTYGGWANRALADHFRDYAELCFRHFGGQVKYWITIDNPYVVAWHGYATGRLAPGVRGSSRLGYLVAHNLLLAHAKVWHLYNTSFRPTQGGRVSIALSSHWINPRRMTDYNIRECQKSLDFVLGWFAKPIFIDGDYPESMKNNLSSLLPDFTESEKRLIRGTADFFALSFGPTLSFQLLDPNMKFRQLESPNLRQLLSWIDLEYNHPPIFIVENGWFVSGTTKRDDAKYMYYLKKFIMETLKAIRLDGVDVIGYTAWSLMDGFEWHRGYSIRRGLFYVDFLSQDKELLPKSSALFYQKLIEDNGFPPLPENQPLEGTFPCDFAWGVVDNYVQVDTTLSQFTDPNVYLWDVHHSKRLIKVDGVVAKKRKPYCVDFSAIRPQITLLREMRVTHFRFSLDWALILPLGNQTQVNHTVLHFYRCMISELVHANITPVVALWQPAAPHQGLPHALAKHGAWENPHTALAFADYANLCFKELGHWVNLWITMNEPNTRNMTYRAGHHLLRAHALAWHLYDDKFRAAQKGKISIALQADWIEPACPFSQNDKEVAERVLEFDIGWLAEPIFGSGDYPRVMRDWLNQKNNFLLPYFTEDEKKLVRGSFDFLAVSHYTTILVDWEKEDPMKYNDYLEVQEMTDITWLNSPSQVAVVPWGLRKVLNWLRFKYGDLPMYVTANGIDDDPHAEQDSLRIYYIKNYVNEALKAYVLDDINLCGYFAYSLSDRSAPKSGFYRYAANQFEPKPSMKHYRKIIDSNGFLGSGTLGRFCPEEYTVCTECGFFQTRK
Kind of assay: SPR competition; competitor FGF23^28-251 immobilized, fixed FGFR1c-Klotho complex. Here is the method:
Increasing concentrations of FGF23²⁸⁻²⁵¹ (0-50 nM) were mixed with a fixed concentration of 1:1 complex of the ectodomains of FGFR1c and Klotho (15 nM and 20 nM, respectively) in HBS-EP buffer, and the mixtures were passed over the FGF23 chip. In the other—reverse—assay, FGF23¹⁸⁰⁻²⁵¹ was immobilized on a chip (˜48.4 fmole/mm² of flow channel). Increasing concentrations of FGF23²⁸⁻²⁵¹ (0-50 nM) were mixed with a fixed concentration of 1:1 complex of the ectodomains of FGFR1c and Klotho (20 nM) in HBS-EP buffer, and the mixtures were passed over the chip. As a control, competition of FGF23 C-terminal tail peptide in solution with immobilized FGF23 C-terminal tail peptide for binding to the binary FGFR1c-Klotho complex was studied. Increasing concentrations of FGF23¹⁸⁰⁻²⁵¹ (0-400 nM) were mixed with a fixed concentration of 1:1 complex of the ectodomains of FGFR1c and Klotho (20 nM) in HBS-EP buffer, and the mixtures were passed over the FGF23¹⁸⁰⁻²⁵¹ chip.
To fully nail down that the C-terminal tail of FGF23 mediates FGF23 binding to the binary FGFR1c-Klotho complex, a fixed concentration of FGFR1c-Klotho was mixed with increasing concentrations of FGF23¹⁸⁰⁻²⁵¹, and the mixtures were passed over the FGF23 chip. Mixtures of FGF23²⁸⁻²⁵¹ with FGFR1c-Klotho were used as a control. […] Similar results were obtained using the “reverse” SPR assay format, where FGF23¹⁸⁰⁻²⁵¹ was immobilized on a chip and mixtures of a fixed concentration of FGFR1c-Klotho complex with increasing concentrations of FGF23²⁸⁻²⁵¹ were passed over the chip (FIG. 3E). Mixtures of FGF23¹⁸⁰⁻²⁵¹ with FGFR1c-Klotho were used as a control (FIG. 3F). To verify the specificity of the interaction between the FGF23 C-terminal tail and the FGFR1c-Klotho complex, the C-terminal tail peptide of FGF21 and FGFR1c-Klotho were mixed at molar ratios of 6:1 and 10:1, and the mixtures were injected over a FGF23 chip.

The target in assay [2] is T1, 1:1 binary complex of the ectodomains …. Kind of assay: SPR competition dose-response: FGF23^28-251 mixed with a fixed concentration of FGFR1c-Klotho, immobilized FGF23^28-251 as competitor; averaged data of two to three experiments. The text has this:
For each protein injection over a Klotho chip, the nonspecific responses from the β-glucuronidase control flow channel were subtracted from the responses recorded for the Klotho flow channel. Similarly, for each protein injection over a FGF chip, the nonspecific responses from the FHF1B control flow channel were subtracted from the responses recorded for the FGF flow channel. Each set of experiments was repeated at least three times, and for each experiment, at least two protein injections were repeated two to five times to monitor chip performance and to verify reproducibility of the binding responses.
To examine whether the C-terminal tail of FGF23 can compete with full-length FGF23 for binding to the binary FGFR1c-Klotho complex, two assay formats were employed. In one assay, FGF23²⁸⁻²⁵¹ was immobilized on a chip (˜16-53 fmole/mm² of flow channel). Increasing concentrations of FGF23¹⁸⁰⁻²⁵¹ (0-400 nM) were mixed with a fixed concentration of 1:1 complex of the ectodomains of FGFR1c and Klotho (10 nM, 15 nM and 20 nM, respectively) in HBS-EP buffer, and the mixtures were passed over the chip. As a control, competition of FGF23 in solution with immobilized FGF23 for binding to the binary FGFR1c-Klotho complex was studied. […]

For assay [3], the target named is T2, ectodomain of murine Klotho (A35 to K982) with C-terminal FLAG tag (murine, UniProt O35082 35-982).
T2 construct: range 35-982; Purified from culture media of HEK293 cells; also called Klotho ectodomain; not shown: C-terminal FLAG tag
T2 sequence (looked up): T1 sequence 2
Kind of assay: SPR; Klotho ectodomain immobilized, increasing FGFR1c ectodomain injected; fitted saturation binding curve. As for the experimental part:
Proteins were immobilized by amine coupling on flow channels of research grade CMS chips (Biacore AB). Proteins were injected over a CMS chip at a flow rate of 50 μl min⁻¹, and at the end of each protein injection (180 s), HBS-EP buffer (50 μl min⁻¹) was flowed over the chip to monitor dissociation for 180 s. The chip surface was then regenerated by injecting 50 μl of 2.0 M NaCl in 10 mM sodium acetate, pH 4.5. […] For each protein injection over a Klotho chip, the nonspecific responses from the β-glucuronidase control flow channel were subtracted from the responses recorded for the Klotho flow channel. Similarly, for each protein injection over a FGF chip, the nonspecific responses from the FHF1B control flow channel were subtracted from the responses recorded for the FGF flow channel. Each set of experiments was repeated at least three times, and for each experiment, at least two protein injections were repeated two to five times to monitor chip performance and to verify reproducibility of the binding responses.
The size-exclusion data showing that Klotho and FGFR1c ectodomains form a stable binary complex (FIG. 1B) indicate that Klotho must harbor a high affinity binding site for FGFR1c. To further confirm this, surface plasmon resonance (SPR) spectroscopy was used to determine the dissociation constant of the FGFR1c-Klotho interaction. […]
(Surface plasmon resonance follows binding to a sensor surface in real time, without labels.)

B1: human FGF23 (A28 to I251), FGF23^28-251, with R176Q and R179Q (ligand)
chain: ASPLLGSSWGGLIHLYTATARNSYHLQIHKNGHVDGAPHQTIYSALMIRSEDAGFVVITGVMSRRYLCMDFRGNIFGSHYFDPENCRFQHQTLENGYDVYHSPQYHFLVSLGRAKRAFLPGMNPPPYSQFLSRRNEIPLIHFNTPIPRQHTQSAEDDSERDPLNVLKPRARMTPAPASCSQELPSAEDNSPMASDPLGVVRGGRVNTHAGGTGPEGCRPFAKFI
notes: also called full-length FGF23
Turning to B1, the “molar amount relative to FGFR1c-Klotho complex at 50% inhibition” value in assay [1] was below 1 fold molar amount. In assay [2], the “IC50 (read off the curve)” value is around 20 nM.

B2: ligand-binding domain of human FGFR1c (D142 to R365) (receptor)
chain: T1 sequence 1
notes: Expressed in E. coli; also called FGFR1c ectodomain
The molecule B2 yielded a Kd in assay [3] of 72 nM.

By Kd is commonly meant the equilibrium constant for the complex coming apart. The low end stands for tighter binding, the high end for weaker binding.
